Source: article doi:10.1101/2020.10.23.352708

Assays:
Experiment in all cases: flow cytometry on cells
[1] = molecular target: CXCR4 D97E (human) (UniProt P61073)
[2] = molecular target: CXCR4 L41A (human) (UniProt P61073)
[3] = molecular target: CXCR4 V112L (human) (UniProt P61073)

Endogenous Peptide Inhibitor of CXCR4 (EPI-X4)
fold reduction of the binding affinity against wild-type CXCR4 [1]: 20 fold | fold increase of the IC50 against wild-type CXCR4 [2]: 20 fold | fold increase of the IC50 against wild-type CXCR4 [3]: 6 fold
